Tests used:
[1] = target: FcγRIIIa (UniProt P08637); test: competitive TR-FRET
[2] = target: FcγRIIa (UniProt P12318); test: competitive TR-FRET
[3] = target: FcγRIIb receptor (UniProt P31994); test: competitive TR-FRET
[4] = target: FcγRIIb receptor (UniProt P31994); test: cell based competitive TR-FRET (CisBio); displacement of a fluorescently labeled antibody from the cell surface receptor

Substance: Construct 4-FcγRIIb+ mutant (from UniProt P01857 27-328; P0DOX5 223-448)
- EC50 [1]: 26.7 nM
- EC50 [2]: 0.126 nM
- EC50 [3]: 0.0165 nM
- fold increase in binding against the Construct 4 (SIF3) control [4]: > 300 fold

Source: US20220049019A1
